These results are taken from US20170066829A1 (published 2017).

This assay deals with HER2 molecule (antigen of the affinity ELISA of FIG. 4) (UniProt P04626 23-652, limits assumed). Put plainly: ELISA with dilutions of HRP-conjugated Hersintuzumab, sigmoidal OD 450 nm curves.

B1: Hersintuzumab (antibody, V domains shown)
VH: EVKLVESGGGLVKPGGSLRLSCATSGFSFSSYYMYWVRQAPGKRLEWVAYISSGSEIYYSDSVKGRFTISRDSAKNTLYLQMNSLRAEDTAVYYCARLGDDGMDVWGQGTTVTVSS
VL: DIVMTQSPSSLSASVGDRVTITCRASQNVRTAVAWFQQKPGKAPKALIYLASNRHTGVPDRFTGSGSGTEFTLTISNLQPEDFATYFCLQHNSYPLTFGGGTKVEIK
notes: also called humanized anti-HER2 antibody; humanized monoclonal anti-HER2 antibody
As to B1, the Ka is 6e+08 M⁻¹.
